# Publication PMC3979729
# Biological target: TNFR (human (endogenous in primary CD4+ T cells)) (UniProt P19438)
# UniProt P19438, sequence (P19438 30-455): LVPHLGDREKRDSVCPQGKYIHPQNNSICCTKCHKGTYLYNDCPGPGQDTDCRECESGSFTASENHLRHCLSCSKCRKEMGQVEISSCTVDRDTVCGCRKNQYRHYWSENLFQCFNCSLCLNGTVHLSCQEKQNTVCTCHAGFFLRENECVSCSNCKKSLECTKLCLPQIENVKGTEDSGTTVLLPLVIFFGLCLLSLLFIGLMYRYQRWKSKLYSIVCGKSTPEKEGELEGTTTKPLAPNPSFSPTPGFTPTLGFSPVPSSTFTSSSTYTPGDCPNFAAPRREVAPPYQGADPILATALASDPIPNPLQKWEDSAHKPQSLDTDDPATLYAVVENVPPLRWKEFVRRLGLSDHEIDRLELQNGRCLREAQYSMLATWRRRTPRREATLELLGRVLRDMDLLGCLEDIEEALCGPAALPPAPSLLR
substance,measurement,value
tumor necrosis factor alpha (TNF-α) (from UniProt P01375 1-233) (ligand),other (% necroptosis),0.3
